The source of these data is patent publication US20260234255A1 (Genmab, published 2026).

Experiment [1] has as its target T1, rhesus monkey (Macaca mulatta) CD30 (rhesus monkey, UniProt P28908 19-595 (human entry)).
T1 construct: also called mmCD30
T1 chain: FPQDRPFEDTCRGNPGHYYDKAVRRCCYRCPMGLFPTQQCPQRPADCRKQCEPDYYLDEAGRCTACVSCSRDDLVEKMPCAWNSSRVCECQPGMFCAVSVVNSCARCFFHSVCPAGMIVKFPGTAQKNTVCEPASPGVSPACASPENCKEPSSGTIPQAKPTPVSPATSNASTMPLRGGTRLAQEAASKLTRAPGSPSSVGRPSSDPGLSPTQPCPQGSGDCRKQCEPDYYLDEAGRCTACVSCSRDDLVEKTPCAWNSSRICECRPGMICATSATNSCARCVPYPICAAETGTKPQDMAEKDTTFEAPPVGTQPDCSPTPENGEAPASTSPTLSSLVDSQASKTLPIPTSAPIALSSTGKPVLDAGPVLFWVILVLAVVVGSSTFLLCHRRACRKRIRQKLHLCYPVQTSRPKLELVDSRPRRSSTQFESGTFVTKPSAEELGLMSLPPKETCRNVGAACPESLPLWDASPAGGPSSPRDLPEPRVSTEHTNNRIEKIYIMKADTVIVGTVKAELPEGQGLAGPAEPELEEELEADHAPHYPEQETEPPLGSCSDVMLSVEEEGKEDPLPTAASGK
Put plainly: flow cytometry, Expi293F cells transfected with rhesus monkey CD30. The procedure: Cells (3×10⁴ cells/well) were incubated in polystyrene 96-well round-bottom plates (Greiner bio-one, cat. no. 650180) with serial dilutions of antibodies (ranging from 0.005 to 10 μg/mL in 3-fold dilution steps) in 100 μL staining buffer at 4° C. for 30 min. Experiments were performed in technical duplicate. After washing twice in staining buffer, cells were incubated in 50 μL secondary antibody at 4° C. for 30 min. As a secondary antibody, R-PE-conjugated goat-anti-human IgG (Jackson ImmunoResearch, UK; cat. no. 109⁻¹¹⁶-098) diluted 1:400 in staining buffer was used. Cells were washed twice in staining buffer, resuspended in 30 μL staining buffer containing 0.4% EDTA and analyzed on an iQue Screener (Intellicyt Corporation, USA). Binding curves were analyzed using non-linear regression (sigmoidal dose-response with variable slope) using GraphPad Prism V9.0.0 software (GraphPad Software, San Diego, CA, USA).
(In general: Flow cytometry measures light scatter and fluorescence of single cells or particles in a stream.)

Experiment [2] has as its target T2, human CD30 (human, UniProt P28908 19-595).
T2 construct: The same molecule is used for CD30 on HL/ALCL/NHL cell lines; also called huCD30; TNFRSF8
T2 sequence: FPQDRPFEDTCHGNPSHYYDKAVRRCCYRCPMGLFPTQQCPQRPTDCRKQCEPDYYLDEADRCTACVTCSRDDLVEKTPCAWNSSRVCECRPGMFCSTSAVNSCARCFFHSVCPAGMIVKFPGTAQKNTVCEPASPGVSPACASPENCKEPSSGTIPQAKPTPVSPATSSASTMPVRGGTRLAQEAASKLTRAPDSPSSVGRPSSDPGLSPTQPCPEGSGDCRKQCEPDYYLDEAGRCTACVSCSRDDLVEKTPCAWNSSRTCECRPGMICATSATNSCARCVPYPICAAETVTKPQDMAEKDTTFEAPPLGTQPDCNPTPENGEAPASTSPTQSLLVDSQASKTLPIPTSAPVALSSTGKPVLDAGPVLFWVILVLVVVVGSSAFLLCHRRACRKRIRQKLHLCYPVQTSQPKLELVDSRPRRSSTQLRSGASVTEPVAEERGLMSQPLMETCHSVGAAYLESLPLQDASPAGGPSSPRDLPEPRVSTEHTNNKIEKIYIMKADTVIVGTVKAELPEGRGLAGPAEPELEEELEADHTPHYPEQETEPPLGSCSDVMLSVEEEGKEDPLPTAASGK
Put plainly: flow cytometry, DEL cells, experiment N = 1.

In experiment [3] the target is T2, human CD30. Put plainly: flow cytometry, KI-JK cells, experiment N = 2.
Experiment [4] has as its target T2, human CD30. The experiment in a line: flow cytometry, KI-JK cells (ALCL), range of 3 tests. The procedure:
(§1) Cells (3×10⁴ cells/well) were incubated in polystyrene 96-well round-bottom plates (Greiner bio-one, cat. no. 650180) with serial dilutions of antibodies (range 0.0046 to 10 μg/mL in 3-fold dilution steps) in 50 μL staining buffer at 4° C. for 30 min. After washing twice in staining buffer, cells were incubated with 50 μL secondary antibody at 4° C. for 30 min. […] Next, cells were washed twice in staining buffer, resuspended in 100 μL staining buffer supplemented with TO-PRO-3 iodide (Thermo Fisher Scientific; cat. no. T3605; 1:8000 dilution) and analyzed on a FACSCelesta flow cytometer (BD Biosciences, USA). Live cells were gated based on FSC/SSC and absence of TOPRO-3 staining. Binding curves were analyzed by non-linear regression of log-transformed data (sigmoidal dose-response with variable slope, four parameters) using GraphPad Prism V7.02 software (GraphPad Software, San Diego, CA, USA).

The target of experiment [5] is T2, human CD30. Put plainly: flow cytometry, KARPAS-299 cells (ALCL), average of 2 tests. The method, then:
as §1

Experiment [6] has as its target T2, human CD30. The experiment in a line: cell-based or functional assay.

Substitutions are numbered along the chain they refer to.

B1: bsG1-huCD3-FEALxCD30-MDX060-FEAR (bispecific antibody, human IgG1, kappa, lambda)
heavy 1: not shown
light 1: not shown
heavy 2: QVQLQQWGAGLLKPSETLSLTCAVYGGSFSAYYWSWIRQPPGKGLEWIGDINHGGGTNYNPSLKSRVTISVDTSKNQFSLKLNSVTAADTAVYYCASLTAYWGQGSLVTVSSASTKGPSVFPLAPSSKSTSGGTAALGCLVKDYFPEPVTVSWNSGALTSGVHTFPAVLQSSGLYSLSSVVTVPSSSLGTQTYICNVNHKPSNTKVDKRVEPKSCDKTHTCPPCPAPEFEGGPSVFLFPPKPKDTLMISRTPEVTCVVVAVSHEDPEVKFNWYVDGVEVHNAKTKPREEQYNSTYRVVSVLTVLHQDWLNGKEYKCKVSNKALPAPIEKTISKAKGQPREPQVYTLPPSREEMTKNQVSLTCLVKGFYPSDIAVEWESNGQPENNYKTTPPVLDSDGSFFLYSRLTVDKSRWQQGNVFSCSVMHEALHNHYTQKSLSLSPG
light 2: DIQMTQSPTSLSASVGDRVTITCRASQGISSWLTWYQQKPEKAPKSLIYAASSLQSGVPSRFSGSGSGTDFTLTISSLQPEDFATYYCQQYDSYPITFGQGTRLEIKRTVAAPSVFIFPPSDEQLKSGTASVVCLLNNFYPREAKVQWKVDNALQSGNSQESVTEQDSKDSTYSLSSTLTLSKADYEKHKVYACEVTHQGLSSPVTKSFNRGEC
notes: also called bsG1-huCD3xCD30-MDX060
By EC50 (read off the curve) is commonly meant the midpoint of the concentration-response curve. A word on the EC50: it is the midpoint of the concentration-response curve. In the case of B1, the “EC50 (read off the curve)” value in experiment [1] was roughly 0.2 µg/mL. The concentration giving a half-maximal response (EC50) was determined as 0.302 µg/mL with human CD30 [2] and 0.0735 µg/mL in the experiment with human CD30 [3].

B2: bsG1-huCD3-FEALxCD30-MDX060-FERR (bispecific antibody, human IgG1, kappa, lambda)
heavy 1: not shown
light 1: not shown
heavy 2: B1 heavy 2 with G231R, A260D
light 2: B1 light 2
notes: Bispecific IgG1 made by controlled Fab-arm exchange; also called bsIgG1-huCD3-FEALxCD30-MDX060-FERR; bsG1-huCD3×CD30-MDX060
For B2, the EC50 with human CD30 [4] was in the range of 0.143 to 0.258 µg/mL. In the experiment with human CD30 [5], the response was half-maximal at 0.202 µg/mL (EC50). For the same molecule, in the experiment with human CD30 [6], the “T-cell mediated cytotoxicity of KI-JK cells, average IC50” value worked out at 0.0015 µg/mL and the “T-cell mediated cytotoxicity of L-428 cells, average IC50” value stood at 0.002 µg/mL.
